Measured values as given in US20140286957A1 (Teva, published 2014).
Read-outs that look alike come from different tables or passages of the source.

Legend:
[1] = target: T1, Human CD1d on cells (human, UniProt P15813 20-335); experiment: cell-based or functional assay
T1 sequence (looked up): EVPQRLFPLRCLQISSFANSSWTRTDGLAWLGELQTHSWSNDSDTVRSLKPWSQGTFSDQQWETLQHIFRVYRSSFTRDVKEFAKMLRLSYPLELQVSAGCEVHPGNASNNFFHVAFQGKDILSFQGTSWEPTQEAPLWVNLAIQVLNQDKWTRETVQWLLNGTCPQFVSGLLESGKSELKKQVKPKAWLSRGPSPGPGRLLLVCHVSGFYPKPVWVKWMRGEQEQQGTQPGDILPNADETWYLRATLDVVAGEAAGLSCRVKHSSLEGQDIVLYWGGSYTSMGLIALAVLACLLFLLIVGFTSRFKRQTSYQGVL

[2] = target: T2, Human CD1d/β2M (human, UniProt P15813 20-301; P61769 21-119); experiment: SPR
T2 construct: also called hCD1d; recombinant human CD1d

[3] = target: T1, Human CD1d on cells; experiment: cell-based or functional assay; remark: listed apart in the source
[4] = target: T1, Human CD1d on cells; experiment: cell-based or functional assay; remark: listed apart in the source
[5] = target: T1, Human CD1d on cells; experiment: cell-based or functional assay; remark: listed apart in the source

B1: 401.11.152 (antibody, IgG4, V domains shown)
VH: EVQLVESGGGLVQPGRSLRLSCAASGFTFDDYAMHWVRQAPGKGLEWVATIIWNSAIIGYADSVKGRFIVSRDNAKNSLYLQMNSLRAEDTALYYCAKDMCSSSGCPDGYFDSWGQGTLVTVSS
VL: DIQMTQSPSSVSASVGDRVTITCRASQHISSWLAWYQQKPGKAPKLLIYAASSLQSGVSSRFSGSGSGTDFTLTISSLQPEDFATYYCQQANRFPLTFGGGTKLEIKR
notes: IgG4 (S228P)
B1 was tested, and the “NKT IL-4 EC50 (moDC)” value [1] was 10.2 ng/mL, the “NKT IL-13 EC50 (moDC)” value [1] was 78.5 ng/mL and the Kd [2] was 2.83 nM.

B2: 401.11.154 (antibody, IgG4, V domains shown)
VH: QVQLVGSGGGLVKPGRSLRLSCAASGFTFDDYAMHWVRQAPGKGLEWVATIIWNSAIIGYADSVKGRFIVSRDNAKNSLYLQMNSLRAEDTALYYCAKDMCSSSGCPDGYFDSWGQGTLVTVSS
VL: DIQMTQSPSSVSASVGDRVTITCRASQHISSWLAWYQQKPGKAPKLLIYAASSLQSGVPSRFSGSGSGTDFTLTISSLQPEDFATYYCQQANRFPLTFGGGTKLEIKR
notes: IgG4 (S228P)
B2 was tested, and the “NKT IL-4 EC50 (moDC)” value [1] was 4.16 ng/mL, the “NKT IL-13 EC50 (moDC)” value [1] was 17.7 ng/mL and the Kd [2] was 1.77 nM.

B3: 401.11.178 (antibody, V domains shown)
VH: QVQLVGSGGGLVKPGRSLRLSCAASGFTFDDYAMHWVRQAPGKGLEWVATIIWNSAIIGYADSVKGRFIVSRDNAKNSLYLQMNSLRAEDTALYYCAKDLCSSGGCPDGYFDSWGQGTLVTVSS
VL: DIQMTQSPSSVSASVGDRVTITCRASQHISSWLAWYQQKPGKAPKLLIYAASSLQSGVPSRFSGSGSGTDFTLTISSLQPEDFATYYCQQANRFPLTFGGGTKLEIK
For B3, the “NKT IFN-γ EC50 (moDC)” value [3] was 15.1 ng/mL, the “NKT IL-4 EC50 (moDC)” value [3] was 0.969 ng/mL and the “NKT IL-5 EC50 (moDC)” value [3] was 1.38 ng/mL. For the same binder, the “NKT IL-13 EC50 (moDC)” value [3] was 1.76 ng/mL and the Kd [2] was 0.468 nM.

B4: 401.11.155 (antibody, IgG4, V domains shown)
VH: EVQLVESGGGLVQPGRSLRLSCAASGFTFDDYAMHWVRQAPGKGLEWVATIIWNSAIIGYADSVKGRFIVSRDNAKNSLYLQMNSLRAEDMALYYCAKDMCSSSGCPDGYFDSWGQGTLVTVSS
VL: DIQMTQSPSSVSASVGDRVTITCRASQHISSWLAWYQQKPGKAPKLLIYAASSLQSGVPSRFSGSGSGTDFTLTISSLQPEDFATYYCQQANRFPLTFGGGTKLEIKR
notes: IgG4 (S228P)
With B4 the “NKT IL-4 EC50 (moDC)” value [1] was 27.6 ng/mL, the “NKT IL-13 EC50 (moDC)” value [1] was 74.7 ng/mL and the Kd [2] was 2.42 nM.

B5: 401.11.160 (antibody, IgG4, V domains shown)
VH: EVQLVESGGGLVQPGRSLRLSCAASGFTFDDYAMHWVRQAPGKGLEWVATIIWNSAIIGYADSVKGRFIVSRDNAKNSLYLQMNSLRAEDMALYYCAKDMCSSGGCPDGYFDSWGQGTLVTVSS
VL: DIQMTQSPSSVSASVGDRVTITCRASQHISSWLAWYQQKPGKAPNLLIYAASSLQSGVPSRFSGSGSGTDFTLTISSLQPEDFATYYCQQANRFPLTFGGGTKLEIKR
notes: IgG4 (S228P)
In the case of B5, the “NKT IL-4 EC50 (moDC)” value [1] is reported as 1.56 ng/mL, the “NKT IL-13 EC50 (moDC)” value [1] is reported as 6.52 ng/mL and the Kd [2] is reported as 0.109 nM.

B6: 401.11.177 (antibody, V domains shown)
VH: QVQLVGSGGGLVKPGRSLRLSCAASGFTFDDYAMHWVRQAPGKGLEWVATIIWNSAIIGYADSVKGRFIVSRDNAKNSLYLQMNSLRAEDTALYYCAKDICSSGGCPDGYFDSWGQGTLVTVSS
VL: DIQMTQSPSSVSASVGDRVTITCRASQHISSWLAWYQQKPGKAPKLLIYAASSLQSGVPSRFSGSGSGTDFTLTISSLQPEDFATYYCQQANRFPLTFGGGTKLEIK
With B6 the “NKT IFN-γ EC50 (moDC)” value [3] was 7.56 ng/mL, the “NKT IL-4 EC50 (moDC)” value [3] was 0.731 ng/mL and the “NKT IL-5 EC50 (moDC)” value [3] was 1.4 ng/mL. The “NKT IL-13 EC50 (moDC)” value [3] was 1.27 ng/mL and the Kd [2] was 0.507 nM.

B7: 401.11.167 (antibody, IgG4, V domains shown)
VH: EVQLVESGGGLVQPGRSLRLSCAASGFTFDDYAMHWVRQAPGKGLEWVATIIWNSAIIGYADSVKGRFIVSRDNAKNSLYLQMNSLRAEDTALYYCAKDMCSSGGCPDGYFDSWGQGTLVTVSS
VL: DIQMTQSPSSVSASVGDRVTITCRASQHISSWLAWYQQKPGKAPNLLIYAASSLQSGVPSRFSGSGSGTDFTLTISSLQPEDFATYYCQQANRFPLTFGGGTKLEIKR
notes: IgG4 (S228P)
For B7, the Kd [2] was 0.17 nM, the “NKT IFN-γ EC50 (THP-1)” value [4] was 6.51 ng/mL and the “NKT IL-4 EC50 (THP-1)” value [4] was 2.89 ng/mL. For the same binder, the “NKT IL-5 EC50 (THP-1)” value [4] was 4.98 ng/mL, the “NKT IL-13 EC50 (THP-1)” value [4] was 7.46 ng/mL and the “NKT TNF EC50 (THP-1)” value [4] was 4 ng/mL.

B8: 401.11.165 (antibody, IgG4, V domains shown)
VH: EVQLVESGGGLVQPGRSLRLSCAASGFTFDDYAMHWVRQAPGKGLEWVATIIWNSAIIGYADSVKGRFIVSRDNAKNSLYLQMNSLRAEDTALYYCAKDMCSSGGCPDGYFDSWGQGTLVTVSS
VL: DIQMTQSPSSVSASVGDRVTITCRASQHISSWLAWYQQKPGKAPKLLIYAASSLQSGVPSRFSGSGSGTDFTLTISSLQPEDFATYYCQQANRFPLTFGGGTKLEIKR
notes: IgG4 (S228P)
For B8, the Kd [2] was 0.168 nM, the “NKT IFN-γ EC50 (THP-1)” value [4] was 6.15 ng/mL and the “NKT IL-4 EC50 (THP-1)” value [4] was 1.11 ng/mL. For the same binder, the “NKT IL-5 EC50 (THP-1)” value [4] was 3.73 ng/mL, the “NKT IL-13 EC50 (THP-1)” value [4] was 5.76 ng/mL and the “NKT TNF EC50 (THP-1)” value [4] was 3.04 ng/mL.

B9: 401.11.166 (antibody, IgG4, V domains shown)
VH: EVQLVESGGGLVQPGRSLRLSCAASGFTFDDYAMHWVRQAPGKGLEWVATIIWNSAIIGYADSVKGRFIVSRDNAKNSLYLQMNSLRAEDTALYYCAKDMCSSGGCPDGYFDSWGQGTLVTVSS
VL: DIQMTQSPSSVSASVGDRVTITCRASQHISSWLAWYQQKPGKAPKLLIYAASSLQSGVSSRFSGSGSGTDFTLTISSLQPEDFATYYCQQANRFPLTFGGGTKLEIKR
notes: IgG4 (S228P)
B9 was tested, and the Kd [2] was 0.173 nM, the “NKT IFN-γ EC50 (THP-1)” value [4] was 6.98 ng/mL and the “NKT IL-4 EC50 (THP-1)” value [4] was 2.75 ng/mL. The “NKT IL-5 EC50 (THP-1)” value [4] was 5.38 ng/mL, the “NKT IL-13 EC50 (THP-1)” value [4] was 7.25 ng/mL and the “NKT TNF EC50 (THP-1)” value [4] was 4.02 ng/mL.

B10: 401.11.161 (antibody, IgG4, V domains shown)
VH: EVQLVESGGGLVQPGRSLRLSCAASGFTFDDYAMHWVRQAPGKGLEWVATIIWNSAIIGYADSVKGRFIVSRDNAKNSLYLQMNSLRAEDMALYYCAKDMCSSGGCPDGYFDSWGQGTLVTVSS
VL: DIQMTQSPSSVSASVGDRVTITCRASQHISSWLAWYQQKPGKAPKLLIYAASSLQSGVPSRFSGSGSGTDFTLTISSLQPEDFATYYCQQANRFPLTFGGGTKLEIKR
notes: IgG4 (S228P)
With B10 the “NKT IL-4 EC50 (moDC)” value [1] was 5.24 ng/mL, the “NKT IL-13 EC50 (moDC)” value [1] was 8.38 ng/mL and the Kd [2] was 0.255 nM.

B11: 401.11.179 (antibody, IgG4, V domains shown)
VH: QVQLVGSGGGLVKPGRSLRLSCAASGFTFDDYAMHWVRQAPGKGLEWVATIIWNSAIIGYADSVKGRFIVSRDNAKNSLYLQMNSLRAEDTALYYCAKDMCSSGGCPEGYFDSWGQGTLVTVSS
VL: DIQMTQSPSSVSASVGDRVTITCRASQHISSWLAWYQQKPGKAPKLLIYAASSLQSGVPSRFSGSGSGTDFTLTISSLQPEDFATYYCQQANRFPLTFGGGTKLEIKR
notes: IgG4 (S228P)
B11 was tested, and the “NKT IFN-γ EC50 (moDC)” value [3] was 30.2 ng/mL, the “NKT IL-4 EC50 (moDC)” value [3] was 0.73 ng/mL and the “NKT IL-5 EC50 (moDC)” value [3] was 2.1 ng/mL. For the same binder, the “NKT IL-13 EC50 (moDC)” value [3] was 2.43 ng/mL and the Kd [2] was 0.274 nM.

B12: 402.8.54 (antibody, IgG4, V domains shown)
VH: QVQLQESGPGLVKPSETLSLTCAVYGGSFSGYYWSWIRQPPGKGLEWIGEINHAGSTNYNPSLKSRVTISVDTSKNQFSLKLSSVTAADTAVYYCARGEIYDFWKSYMEVWGKGTTVTVSS
VL: QTVVTQEPSLTVSPGGTVTLTCASSSGAVSSGNFPNWFQQKPGQAPRALIFSASNKHSWTPARFSGSLLGGKAVLTLSGVQPEDEAEYYCLLYFGDTQLGVFGGGTKVTVL
With B12 the “NKT IFN-γ EC50 (moDC)” value [5] was 138 ng/mL and the “NKT IL-4 EC50 (moDC)” value [5] was 109 ng/mL.

B13: 402.8.55 (antibody, IgG4, V domains shown)
VH: QVQLQESGPGLVKPSETLSLTCAVYGGSFSGYYWSWIRQPPGKGLEWIGEINHAGSTNYNPSLKSRVTISVDTSKNQFSLKLSSVTAADTAVYYCARGEIYDFWKSYLEVWGKGTTVTVSS
VL: QTVVTQEPSLTVSPGGTVTLTCASSSGAVSSGNFPNWFQQKPGQAPRALIFSASNKHSWTPARFSGSLLGGKAVLTLSGVQPEDEAEYYCLLYFGDTQLGVFGGGTKVTVL
For B13, the “NKT IFN-γ EC50 (moDC)” value [5] was 445 ng/mL and the “NKT IL-4 EC50 (moDC)” value [5] was 175 ng/mL.
